T1: human annexin A1 (Anx-A1) (human, UniProt P04083 2-346)
T1 construct: also called full-length human Anx-A1 (ANXA1-002 / ANXA1-003 transcripts)
T1 sequence: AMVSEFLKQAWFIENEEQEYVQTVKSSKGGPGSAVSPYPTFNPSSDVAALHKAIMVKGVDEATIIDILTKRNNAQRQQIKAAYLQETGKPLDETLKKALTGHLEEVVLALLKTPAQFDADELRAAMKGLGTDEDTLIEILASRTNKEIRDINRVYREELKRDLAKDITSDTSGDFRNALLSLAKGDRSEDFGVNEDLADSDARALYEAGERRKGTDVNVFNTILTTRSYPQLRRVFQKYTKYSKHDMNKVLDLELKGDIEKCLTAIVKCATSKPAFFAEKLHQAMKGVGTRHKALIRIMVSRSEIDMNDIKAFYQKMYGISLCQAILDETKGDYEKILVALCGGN


Key:
[1] = molecular target: T1, human annexin A1 (Anx-A1); assay: Biacore SPR, assay 2 of 3; antibody captured via goat anti-mouse IgG, Anx-A1 at 5-80 nM as analyte, 1 mM CaCl2
Procedure: (§1) The Mdx001 antibody was immobilised on a chip via a goat anti-mouse IgG. Ligand (Anx-A1) was passed over the immobilised antibody in running buffer. Anx-A1 was used at a concentration of 5, 10, 20, 40 or 80 nM. In each experiment, a total of 150 μl Anx-A1-containing running buffer was passed over the antibody, at a flow rate of 30 μl/min.
(§2) Regeneration was performed using a regeneration buffer, 10 mM glycine-HCl, pH 2. To regenerate the chip, 70 μl regeneration buffer was passed over the chip at a rate of 10 μl/min.
(§3) Experiments were performed in triplicate.

[2] = molecular target: T1, human annexin A1 (Anx-A1); assay: Biacore SPR, assay 1 of 3; antibody captured via goat anti-mouse IgG, Anx-A1 at 5-80 nM as analyte, 1 mM CaCl2
Procedure: as §1, §2, §3

[3] = molecular target: T1, human annexin A1 (Anx-A1); assay: Biacore SPR, average of three assays; antibody captured, Anx-A1 as analyte
Procedure: as §1, §2, §3

[4] = molecular target: T1, human annexin A1 (Anx-A1); assay: Biacore SPR, assay 3 of 3; antibody captured via goat anti-mouse IgG, Anx-A1 at 5-80 nM as analyte, 1 mM CaCl2
Procedure: as §1, §2, §3

[5] = molecular target: T1, human annexin A1 (Anx-A1); assay: Biacore SPR, assay 2 of 3, method of Example 4; second of three experiments
Procedure: as §1
(§4) In light of the ELISA results, the LC1(mod 1)HC4 and LC2(mod 1)HC2 antibodies were discarded. […] Binding of LC1(mod 2)HC4 and LC2(mod 2)HC2 to Anx-A1 was quantified by Biacore, using the same method as described in Example 4. As in Example 4, the Biacore experiments were performed in triplicate. […] LC1(mod 2)HC4 was given the name MDX-L1M2H4. […] LC2(mod 2)HC2 was given the name MDX-L2M2H2.

[6] = molecular target: T1, human annexin A1 (Anx-A1); assay: Biacore SPR, average of three assays, method of Example 4; average of the three experiments
Procedure: as §1, §4

[7] = molecular target: T1, human annexin A1 (Anx-A1); assay: Biacore SPR, assay 3 of 3, method of Example 4; third of three experiments
Procedure: as §1, §4

[8] = molecular target: T1, human annexin A1 (Anx-A1); assay: Biacore SPR, assay 1 of 3, method of Example 4; first of three experiments
Procedure: as §1, §4

Row | Binder | Kd [1] [nM] | Kd [2] [nM] | Kd [3] [nM] | Kd [4] [nM] | Kd [5] [nM] | Kd [6] [nM] | Kd [7] [nM] | Kd [8] [nM]
1 | Mdx001 (antibody, mouse IgG2b, kappa, V domains shown, also called murine anti-Anx-A1 antibody) VH: QVQLQQSGPELVRPGTSVKMSCKASGYTFTNYWIGWAKQRPGHGLEWIGDIYPGGDYTNYNEKFKGKATLTADKSSSTAYMQFSSLTSEDSAIYYCARWGLGYYFDYWGQGITLTVSS VL: DAVMTQTPLSLPVSLGDQVSISCRSSQSLENSNGKTYLNWYLQKPGQSPQLLIYGVSNRFSGVLDRFSGSGSGTDFTLKISRVEAEDLGVYFCLQVTHVPYTFGGGTKLEIKR | 9.58 | 9.43 | 8.49 | 6.46 |  |  |  | 
2 | MDX-L2M2H2 (antibody, human IgG1, kappa, V domains shown, also called LC2(mod 2)HC2; variant 1 of MDX-L2H2) VH: QVQLVQSGPEVKKPGESLKISCKGSGYTFTNYWIGWVRQAPGKGLEWMGDIYPGGDYTNYNEKFKGQVTISADKSISTAYLQWSSLKASDTAIYYCARWGLGYYFDYWGRGTLVTVSS VL: DIVMTQTPLSLSVTPGQPASISCRSSQSLENSNAKTYLNWYLQKPGQSPQLLIYGVSNRFSGVPDRFSGSGSGTDFTLKISRVEAEDVGVYYCLQVTHVPYTFGQGTKVEIKR |  |  |  |  | 4.37 | 4.66 | 5.17 | 4.44

Reference: patent US20200031911A1 (MEDANNEX, published 2020)
